Laboratory results from patent EP4703474A1, “ANTI-LRRC15 ANTIBODY” (priority 2023, dated 2024).
Where a chain is given by its changes, count along the chain named.

B1: H02L01-PBD (conjugate)
heavy: EVQLVESGGGLVQPGGSLRLSCAASGFTFRDYYMAWVRQAPGKGLEWVSSIGFDESRTYYADSVKGRFTISRDDSKNTLYLQMNSLRAEDTAVYYCARHGVSYYSGDNWFAYWGQGTLVTVSSASTKGPSVFPLAPSSKSTSGGTAALGCLVKDYFPEPVTVSWNSGALTSGVHTFPAVLQSSGLYSLSSVVTVPSSSLGTQTYICNVNHKPSNTKVDKKVEPKSCDKTHTCPPCPAPEAAGGPSVFLFPPKPKDTLMISRTPEVTCVVVDVSHEDPEVKFNWYVDGVEVHNAKTKPREEQYNSTYRVVSVLTVLHQDWLNGKEYKCKVSNKALAAPIEKTISKAKGQPREPQVYTLPPSREEMTKNQVSLTCLVKGFYPSDIAVEWESNGQPENNYKTTPPVLDSDGSFFLYSKLTVDKSRWQQGNVFSCSVMHEALHNHYTQKSLSLSPGK
light: DIQMTQSPSSLSASVGDRVTITCKSSQGLLYSGDQKNYLAWYQQKPGKAPKLLIYWASTRQSGVPSRFSGSGSGTDFTLTISSLQPEDFATYYCQQYYDPPYTFGQGTKVEIKRTVAAPSVFIFPPSDEQLKSGTASVVCLLNNFYPREAKVQWKVDNALQSGNSQESVTEQDSKDSTYSLSSTLTLSKADYEKHKVYACEVTHQGLSSPVTKSFNRGEC
B2: H02L01-V1-PBD (conjugate)
heavy: B1 heavy with Y103K
light: B1 light

Columns and labels:
[1] = tested on: LRRC15-negative human lung carcinoma cell line HCC827; test: In vivo antitumor effect, HCC827 subcutaneous transplant model; conditions: 0.4 mg/kg, tail vein, on Day 10, female SCID mice, huM25-MMAE at 0.4 mg/kg or 3.6 mg/kg
Experimental: The antitumor effects of the antibody-drug conjugates were evaluated by using animal models in which cells of the human tumor cell line had been transplanted into immunodeficient mice. 4 to 6 Week-old SCID mice (CB17/Icr-Prkdc[scid]/CrlCrlj, Jackson Laboratory Japan, Inc.) were habituated for 3 days or more under SPF conditions before experimental use. The mice were fed with sterilized solid feed (FR-2, Funabashi Farms Co., Ltd.) and given sterilized tap water (prepared by adding a solution of 5 to 15 ppm sodium hypochlorite). The major and minor diameters of the transplanted tumors were measured twice a week with an electronic digital caliper ([…] Corporation), and the estimated tumor volume was calculated using the following formula. Estimated tumor volume (mm^3) = 1/2 × major diameter (mm) × [minor diameter (mm)]^2 All antibody-drug conjugates were diluted with ABS and administered into the tail vein at doses shown in each Example. In addition, ABS (vehicle) or control hIgG-PBD prepared in Reference Example 4 was administered as the control group, in a similar manner. 5 to 6 Mice were used per group in the experiment. […]

[2] = tested on: Mouse colorectal carcinoma cell line CMT93; test: In vivo antitumor effect, CMT93 subcutaneous transplant model; conditions: 0.4 mg/kg, tail vein, on Day 7, male B6J mice
Experimental: (§1) The antitumor effects of the antibody-drug conjugates were evaluated by using animal models in which cells of a human tumor cell line had been transplanted into immunodeficient mice, or cells of a mouse tumor cell line had been transplanted into immunocompetent mice. 4 to 6 Week-old SCID mice (CB17/Icr-Prkdc[scid]/CrlCrlj, Jackson Laboratory Japan, Inc.), NSG mice (NOD.Cg-Prkdcscid Il2rgtm1Wjl/SzJ, Jackson Laboratory Japan, Inc.), or B6J mice (C57BL/6J, Jackson Laboratory Japan, Inc.) were habituated for 3 days or more under SPF conditions before experimental use. The mice were fed with sterilized solid feed and given sterilized tap water. The major and minor diameters of the transplanted tumors were measured twice a week with an electronic digital caliper (Mitutoyo Corporation), and the estimated tumor volume was calculated using the following formula. Estimated tumor volume (mm^3) = 1/2 × major diameter (mm) × [minor diameter (mm)]^2 All antibody-drug conjugates were diluted with ABS and administered into the tail vein at doses shown in each Example. In addition, ABS (vehicle) or control hIgG-PBD prepared in Reference Example 4 was administered as the control group, in a similar manner. 5 to 6 Mice were used per group in the experiment. To analyze the LRRC15 expression in mouse tumor models, immunohistochemical staining of LRRC15 was performed. […]

[3] = tested on: LRRC15-positive human glioblastoma cell line U118MG; test: In vivo antitumor effect, U118MG subcutaneous transplant model; conditions: 0.4 mg/kg, tail vein, on Day 17, female SCID mice
Experimental: as §1, with “experiment.” for “experiment. To analyze the LRRC15 expression in mouse tumor models, immunohistochemical staining of LRRC15 was performed.”

Row | Molecule | antitumor effect (estimated tumor volume) [1] | antitumor effect (estimated tumor volume) [2] | antitumor effect (estimated tumor volume) [3]
1 | B1 | antitumor activity higher than that of the vehicle, the control hIgG-PBD, and huM25-MMAE | antitumor activity higher than that of the vehicle and the control hIgG-PBD | antitumor activity higher than that of the vehicle and the control hIgG-PBD
2 | B2 | antitumor activity higher than that of the vehicle, the control hIgG-PBD, and huM25-MMAE | antitumor activity higher than that of the vehicle and the control hIgG-PBD | antitumor activity higher than that of the vehicle and the control hIgG-PBD
